According to a protein production outcome set (Wang et al. 2014):

Assay: label from the status in PepcDB records

| Sequence | protein production |
| --- | --- |
| RGIAVYVEHHNGNIHPVTYELIGKAREMASKIKQPVYCVFVGKDIKDKCSNLISYGVDEVFVYDEDEFKDFRIEPYSKAIENFIDKIKPTIVLVGGTTLGRSLAPRLAARFRTGLTADCTILDIQSNTDLDQIRPAFGGNIMAHINTPNNRPQFATVRYKIFSAPEKIENTTGKITLCKVEKKELKSKIKVLS | not failed |
| MPFVLRCLLCCTLFVLGGCAAHEAPLAPVNPMGLSGNVAPEAEKNYALARVLWGNSEVCSDPVQAVAYLDRAIAVQPDYAAAYQRRGLAYSEMGRYEEAFEDLTKALRLKPGVEAYTYRGLVSMRMGNLIGARKDLDHALELDSGYHRAWNFRAAVRLQQDDTAGACADFAKGCSKGDCTGMESARESGICK | failed |
| MSLSGTLIGAAAGGTVGLVASIYRDSKRKIIRDLQKQDIQYVEYGDTRTLIIPTDKYFMFSSPRLNEICYPGLNNVIRLLNFYPQSTIYVAGFTDNVGSRSHKRKLSQAQAETMMTFLWANGIAAKRLKAEGYGDKNAISDNAIIHGSAQNRRIEIQWFTSEGHHHHHH | not failed |
| MGYTLAEFLAHAIALETEAAERYVELADMMEAHNNLDTATVFRDMARFSTLHGDEIKQRSRALELPKLMSWQYRWKTPPEVGDENDIHYLMTPYHALRYARDNEIRGMEYYKEAAANSADPEVKRLGADFAAEEAEHVVALDKWIEKTPRPSITWSEDADPAQCVD | not failed |
| LETSSYLNVLVNSQWKSRWCSVRDNHLHFYQDRNRSKVAQQPLSLVGCEVVPDPSPDHLYSFRILHKGEELAKLEAKSSEEMGHWLGLLLSESG | not failed |
| MKGHIRERSPGHWAIVLDVGEVDPKTGKKKRKWHSFTGTKREAQKECSRLITVLDQGLYVEPTKQTVAEFLNEWLAFVKPSVAPKTHERYTEICRKGLSPLIGNVILSKLKTDRIDAAFTTALTAPRVDHRTKKDQREPLPPLAPRTVHHYRRVLVKALGQAVTWERLSRNPATATTPPKVERQKMLAYDVGQTATLLETLRPTRMFVPVLLAVTCGLRRGEILALRWRHLELGDNRRQMSIEESAEQTADGVRYKEPKSGRARTVALSASTVAELKAHRARQAEEQLRLGIRPDADSFVVAQVDGQPLQPRSLTHEWVRVLGKTSLPRIRFHDLRHTHATQMLSAGVHPKIASERLGHSNIGITLDLYSHVMPGMQADAAEQVDVALQAAISSERKGK | failed |
| MVQHLTAEEIIQYISDAKKSTPIKVYLNGNFEGITYPESFKVFGSEQSKVIFCEADDWKPFYEAYGSQFEDIEIEMDRRNSAIPLKDLTNTNARIEPGAFIREQAIIEDGAVVMMGATINIGAVVGEGTMIDMNATLGGRATTGKNVHVGAGAVLAGVIEPPSASPVIIEDDVLIGANAVILEGVRVGKGAIVAAGAIVTQDVPAGAVVAGTPAKVIKQASEVQDTKKEIVAALRKLND | not failed |
| MRNPFERMPTVLTADELIDKAFRRAEKAASSFKPRGNKVKKARLREELRVRTVSNVVRDNLRKVLERTPGLSTLPKFYQELVDVLVDRDTFHKAMAGIDWAIRIIRELEERYVERIRYSNDPNEIAELRRQFYGRVASVLRDIDDRLRYLNKAREVLKDLPVVDLEIPTVVIAGHPNVGKSTLLKALTTAKPEIASYPFTTRGINVGQFEDGYFRYQIIDTPGLLDRPISERNEIEKQAILALRYLGNLIIYIFDPSEHCGFPLEEQIHLFEEVHGEFKDLPFLVVINKIDVADEENIKRLEKFVKEKGLNPIKISALKGTGIDLVKEEIIKTLRPLAEKVAREKIERELRRYRSYL | not failed |
| MKRFPGRDMRSLTELVLGRDKFRTALCCSVVGMLLTLLFLSSCHYTRPDLTSEELSEKTKDSLNYLYDRHYTWNTNLEVTTDSVTMECLPIKDTYIALYKGDRVVVAEFAIHPADSVDSVWVKLAHTQEEQGWIRETELKESFVPTDSISQAIHFFSDTHASYFMIIFALFVGVYLFRAFRRKQLQLVYFNDIDSVYPLFLCLLMAFSATVYESMQVFVPDTWEHFYFNPTLSPFKVPFILSVFLLSIWLFLIVALAVLDDLFRQLTPAAAVFYLLGLMSSCIFCYFFFILMTHIYIGYLFLAFFIWVFAKKVHRNISYKYRCGHCGEKLKEKGICPHCGAINE | failed |
| MKPICIIPARSGSKGLPDKNMLFLSGKPMIFHTIDAAIESGMFDKKDIFVSTDSELYREICLERGISVVMRKPELSTDQATSYDMLKDFLSDYEDNQEFVLLQVTSPLRKSWHIKEAMEYYSSHDVDNVVSFSEVEKHPSLFTTLSDEGYAIDMVGADKGYRRQDLQPLYYPNGAIFISNKETYLREKSFFTSRTYAYQMAKEFSLDVDTRDDFIHVIGHLFFDYAIREKENKVFYKEGYSRLFNREASKIILGDSKTISTSLESYHNYSQGGVTLATMLENLPNFLTANVTEAFVSIGVNDLITGYSVEEIFSNFQKLYSLLAENKIKMRLTTIAYTLFRETVNNADIEKINQWLTEFCYQNQIPLLDINRFLSKDGNLNYHLTSDGLHFTQEANDLLQSQYQLFVDEVKTLLEHHHHHH | not failed |
| MVQLSLSQVHQDQIYRHGERCYPEECCGLLLGKILIGENGHRHWQVVEVQPTENCWGDVEEFQQNNHQGNKLHYFAIDPKVLLSAQKDCRQKGLSIIGIFHSHPHGQPIPSEFDRAIAWPEYIYLIASGLEHHHHHH | failed |
| TAANAVASRVGAPLGHDYAVLSLSDRLKPWDVVAQRISAVASADMAFAVYNPASKSRTWQVAAMRDLVLEHRSPDTPVIIGRDVAGAQESVRVVRLADLDPAEIDMRCLLIVGSSMTTVVENEHGTRVFTPRRYPG | failed |
| MPAYDLIIRNGTICDGTGAPRFTGDVAVKNGLIVAVGAVRGDAAEEVDATGRIVAPGWVDVHTHYDGQATWDPEMAPSSWHGVTTVIMGNCGVGFAPAAPDRHDWLIGLMEGVEDIPGTALAEGMAWDWESFPEYLDSLEKMPRAVDVGTHVPHGAVRAYVLGEREKPGAVPTAEDIRKMSEIVEEGVRAGALGFSTSRTVIHKSVDGEVVPGTTATAEELIEIGRAMGRVGHGVFEMASDMKREWDEFGWMGALSRETGLPVTYAALQSIAKEMPLEEQIAEMRHQNAQGANIVAQIALRGNGVIMAWRGTIHPFRFRPSYAAIAELPWEEQLVQLKDPAFRAKVLAEANVYPDSDIVNLFRMIAEGWHNQFIMDEDFDYEPQPEASILLRAKTAGVSPDAFAYDKLMEDEGNGFIYLPILNYADGNLDFLEALQAADDTVNSLSDGGAHCGTICDAASPTFMLQHWVRDRRRGSRISLEHAIKRQCHDTARLYGLDDRGVIAPGYLADINVIDFDRVRLLKPWLAFDLPAGGKRLLQKAEGYDYTIKGGKVTFRNGEWTGATPGNLIRGPQRADLMEAAE | failed |
| MKKNHVVIGVIIVAALALLFTLSIQIARLILGDGPMVSSGEGVGYVEVKGPILESEEIVKQLSEMRKKTNVKAVVLRIESPGGVIGPSQEIYEAVKKLAKTKKVVVSMGSVAASGGYHIAIPAAVIYANPGTITGSIGVLMKLANVEGLMDKVGMKAFTLKSGKFKDAGSPVRALTDEDRALLQGVIDNLHTQFVKAVAEARKLPVEEVRRLADGRVYTGEQAVSLKLVDRLGTLEDAVEEAGRLAGIKGEPTLLMPPKKRKHLRDYLLEEASGFFREIVRREGGFSVNYELDPAVGNGGRLEHHHHHH | not failed |
| MIQTFFDFPVYFKFFIGLFALVNPVGIIPVFISMTSYQTAAARNKTNLTANLSVAIILWISLFLGDTILQLFGISIDSFRIAGGILVVTIAMSMISGKLGEDKQNKQEKSETAVRESIGVVPLALPLMAGPGAISSTIVWGTRYHSISYLFGFFVAIALFALCCWGLFRMAPWLVRVLRQTGINVITRIMGLLLMALGIEFIVTGIKGIFPGLLN | failed |
| MGISVASSNKPNNYDRYFNIYGVVIAAVLAAIAAIEIFEIFELPFEKYFAGIDIASIFSFTTKVVSDSSYVGIFILMTLESMFIPIPSEVILPLSGFLVYQGSFNFAVVLADTIIASMVGSFIDYFLGLYLGRPIIVKILSYFSISEDSLSRAETWIDKMGSFSVFLARFIPGIRSLISLPAGMLKMKMWLFALMTFLGSFIWSFSLIYLGYSAGPYWSVAVKNFSALLDQIIIDVVFLASLAYIFYYIFLKIKRRQHALD | failed |
| MDYMERPKLGLIVREPYASLIVDGRKVWEIRRRKTRHRGPLGIVSGGRLIGQADLVGVEGPFSVEELLAHQEKHLAEEAFLRAYAKDEPLYAWVLENAFRYEKPLHVPRRPGRVMFVDLSEVRW | not failed |
